Substitutions are numbered along the chain they refer to. Names may count otherwise. Each block holds one binder with its values, some of them ahead of it.
Columns and labels:
[1] = molecular target: T1, hDLL3 EGF1-6 (aa 216-492) fused to mIgG2a CH2-CH3 Fc (human); assay: ELISA on coated hDLL3 EGF1-6-mIgG2a Fc (2 ug/ml), anti-hIgG-Fc-HRP, A450
T1 construct: also called DLL3 EGF1-6(mIgG2aCH2-CH3); hDLL3 EGF domain construct
T1 chain: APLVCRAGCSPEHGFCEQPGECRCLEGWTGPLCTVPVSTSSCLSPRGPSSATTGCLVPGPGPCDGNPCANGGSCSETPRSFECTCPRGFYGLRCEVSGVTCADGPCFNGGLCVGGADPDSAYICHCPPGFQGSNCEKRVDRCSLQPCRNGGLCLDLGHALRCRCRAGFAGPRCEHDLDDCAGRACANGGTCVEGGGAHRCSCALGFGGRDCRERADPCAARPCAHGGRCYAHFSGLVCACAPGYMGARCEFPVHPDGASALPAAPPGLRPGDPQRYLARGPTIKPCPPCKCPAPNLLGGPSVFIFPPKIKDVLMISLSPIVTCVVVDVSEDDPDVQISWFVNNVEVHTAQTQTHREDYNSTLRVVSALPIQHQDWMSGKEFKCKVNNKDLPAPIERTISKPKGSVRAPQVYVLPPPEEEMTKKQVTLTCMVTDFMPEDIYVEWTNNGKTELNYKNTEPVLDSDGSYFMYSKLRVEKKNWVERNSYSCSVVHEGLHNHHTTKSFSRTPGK

human DLL3 on cells = molecular target: T2, human DLL3 on cells (human, UniProt Q9NYJ7 27-618); assay: cell-based or functional assay
T2 sequence (looked up): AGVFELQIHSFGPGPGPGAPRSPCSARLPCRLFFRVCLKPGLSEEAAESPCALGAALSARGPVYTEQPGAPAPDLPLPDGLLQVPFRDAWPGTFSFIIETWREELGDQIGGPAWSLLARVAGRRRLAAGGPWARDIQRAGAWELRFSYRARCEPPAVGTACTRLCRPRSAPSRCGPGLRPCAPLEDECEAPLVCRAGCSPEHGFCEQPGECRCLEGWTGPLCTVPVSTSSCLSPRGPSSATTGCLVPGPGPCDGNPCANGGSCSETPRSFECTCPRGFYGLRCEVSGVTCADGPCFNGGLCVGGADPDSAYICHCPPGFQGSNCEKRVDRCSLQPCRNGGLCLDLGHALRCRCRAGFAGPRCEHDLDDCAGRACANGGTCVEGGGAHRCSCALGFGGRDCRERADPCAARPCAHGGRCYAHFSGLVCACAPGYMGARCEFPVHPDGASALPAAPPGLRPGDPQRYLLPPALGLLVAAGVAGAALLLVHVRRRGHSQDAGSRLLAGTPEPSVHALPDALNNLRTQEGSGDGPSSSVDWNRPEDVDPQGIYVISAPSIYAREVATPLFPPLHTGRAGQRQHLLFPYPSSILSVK

[2] = molecular target: T3, DLL3 on cells (SHP-77, NCI-H82, HEK-DLL3, membrane proteome array cells) (human, UniProt Q9NYJ7 27-618); assay: flow cytometry on SHP-77 cells, Geomeans RL1-H; p-SCN-Bn-DOTA conjugate against the unconjugated VHHFc
T3 construct: whole, on cells; also called hDLL3
T3 sequence (looked up): T2 sequence (looked up)

[3] = molecular target: T3, DLL3 on cells (SHP-77, NCI-H82, …); assay: flow cytometry on SHP-77 cells, Geomeans RL1-H
[4] = molecular target: T3, DLL3 on cells (SHP-77, NCI-H82, …); assay: flow cytometry on SHP-77 cells, Geomeans RL1-H; remark: listed apart in the source
[5] = molecular target: T4, DLL3 EGF1-6(mIgG2aCH2-CH3) (human); assay: Octet BLI, VHH-Fc captured on AHC sensor, DLL3 EGF1-6-mIgG2a Fc titrated
T4 construct: also called hDLL3 EGF domain construct; DLL3 EGF1-6 domain
T4 chain: T1 chain

binding result [1]: binds
B1: 24 (Fc fusion)
VHH-Fc chain: QVQYVESGGGLVQPGGSLRLSCAASGFTFSSYRINWYRQPPGKGRELVGSITDTGSTNYADSVKGRFTISRDNAKNTVYLQMSSLKPEDTAVYYCRAPTIAAYWGQGTQVTVSS
notes: same clone as 1.m43, 2.m5, 3.m7, 3.m51, 4.m1; also called Clone 24

H435Q-Fc SHP-77 Internalization FOI (human DLL3 on cells): 1.18 FOI
B2: Clone 186 VHH-Fc with H435Q Fc (Fc fusion)
chain: QVQVVESGGGLVQPGGSLTLSCAASGFDFSTYTVNWYRQAPGKEREKVARISSTGTTTNYANSAKGRFTLSRDNAKNRVYLQMNNLKPEDTAVYFCNFERFDSNYWGQGTQVTVSSAPELLGGPSVFLFPPKPKDTLMISRTPEVTCVVVDVSHEDPEVKFNWYVDGVEVHNAKTKPREEQYNSTYRVVSVLTVLHQDWLNGKEYKCKVSNKALPAPIEKTISKAKGQPREPQVYTLPPSREEMTKNQVSLTCLVKGFYPSDIAVEWESNGQPENNYKTTPPVLDSDGSFFLYSKLTVDKSRWQQGNVFSCSVMHEALHNQYTQKSLSLSPG

H435Q-Fc SHP-77 Internalization FOI (human DLL3 on cells): 1.19 FOI
B3: Clone 24 VHH-Fc with H435Q Fc (Fc fusion)
chain: QVQYVESGGGLVQPGGSLRLSCAASGFTFSSYRINWYRQPPGKGRELVGSITDTGSTNYADSVKGRFTISRDNAKNTVYLQMSSLKPEDTAVYYCRAPTIAAYWGQGTQVTVSSAPELLGGPSVFLFPPKPKDTLMISRTPEVTCVVVDVSHEDPEVKFNWYVDGVEVHNAKTKPREEQYNSTYRVVSVLTVLHQDWLNGKEYKCKVSNKALPAPIEKTISKAKGQPREPQVYTLPPSREEMTKNQVSLTCLVKGFYPSDIAVEWESNGQPENNYKTTPPVLDSDGSFFLYSKLTVDKSRWQQGNVFSCSVMHEALHNQYTQKSLSLSPG

binding result [1]: no binding (tested: 100 nM)
B4: 126 (parental VHHFc of Example 41) (Fc fusion)
chain: QVQLVESGGGMVQPGGSLRLSCAASGITFSMYSMSWYRQPPGKQRELVAATTTFGSTNYADSVKGRFTISRDNAKNTVYLQMNSLKPEDTAVYLCNARFTSEEYWGQGTQVTVSS
notes: Parental VHHFc; not shown: hinge and Fc

H435Q-Fc SHP-77 Internalization FOI (human DLL3 on cells): 1.27 FOI
B5: Clone 107 VHH-Fc with H435Q Fc (Fc fusion)
chain: QVQLVESGGGLVQAGDSLRLSCVASDRTFSSYAVGWFRQAPGKEREFVAAISWNGGRTLYTDSVTGRFTISRDNAKSTVYLQMNGLKPEDTAVYYCAARPAAPTRRLEYDYWGQGTQVTVSSAPELLGGPSVFLFPPKPKDTLMISRTPEVTCVVVDVSHEDPEVKFNWYVDGVEVHNAKTKPREEQYNSTYRVVSVLTVLHQDWLNGKEYKCKVSNKALPAPIEKTISKAKGQPREPQVYTLPPSREEMTKNQVSLTCLVKGFYPSDIAVEWESNGQPENNYKTTPPVLDSDGSFFLYSKLTVDKSRWQQGNVFSCSVMHEALHNQYTQKSLSLSPG

H435Q-Fc SHP-77 Internalization FOI (human DLL3 on cells): 1.19 FOI
B6: Clone 126 VHH-Fc with H435Q Fc (Fc fusion)
chain: QVQLVESGGGMVQPGGSLRLSCAASGITFSMYSMSWYRQPPGKQRELVAATTTFGSTNYADSVKGRFTISRDNAKNTVYLQMNSLKPEDTAVYLCNARFTSEEYWGQGTQVTVSSAPELLGGPSVFLFPPKPKDTLMISRTPEVTCVVVDVSHEDPEVKFNWYVDGVEVHNAKTKPREEQYNSTYRVVSVLTVLHQDWLNGKEYKCKVSNKALPAPIEKTISKAKGQPREPQVYTLPPSREEMTKNQVSLTCLVKGFYPSDIAVEWESNGQPENNYKTTPPVLDSDGSFFLYSKLTVDKSRWQQGNVFSCSVMHEALHNQYTQKSLSLSPG

binding result [2]: binds
B7: 186_zu2 conjugated to p-SCN-Bn-DOTA (Fc fusion)
chain: QVQLVESGGGLVQPGGSLRLSCAASGFDFSTYTVNWFRQAPGQGLEKVARISSTGTTTNYANSAKGRFTISRDNSKNTLYLQMNSLRAEDTAVYYCAAERFDSNYWGQGTLVTVSSEPKSSDKTHTCPPCPAPEAEGAPSVFLFPPKPKDTLMISRTPEVTCVVVDVSHEDPEVKFNWYVDGVEVHNAKTKPREEQYNSTYRVVSVLTVLHQDWLNGKEYKCKVSNKALPSSIEKTISKAKGQPREPQVYTLPPSREEMTKNQVSLTCLVKGFYPSDIAVEWESNGQPENNYKTTPPVLDSDGSFFLYSKLTVDKSRWQQGNVFSCSVMHEALHNQYTQKSLSLSPG
modifications: conjugated to p-SCN-Bn-DOTA, chelator-antibody ratio of 3-5; lysine in FW2 (printed position 52)
notes: Humanized VHHFc conjugate

EC50 (read off the curve) [2]: ~0.3 nM
B8: 186_zu1 conjugated to p-SCN-Bn-DOTA (Fc fusion)
chain: B7 chain with K47A
modifications: conjugated to p-SCN-Bn-DOTA, chelator-antibody ratio of 3-5
notes: Humanized VHHFc conjugate

H435Q-Fc SHP-77 Internalization FOI (human DLL3 on cells): 1.19 FOI
B9: Clone 100 VHH-Fc with H435Q Fc (Fc fusion)
chain: QVQLVESGGGSVQPGGSLRLSCAASGIVFNSDVMGWYRQVPGKPRELVATITGGGSTNYATSVKGRFTISRDNAKNTVYLQMNSLRPEDTAVYYCNGRRGDSMLAFWAQGTQVTVSSAPELLGGPSVFLFPPKPKDTLMISRTPEVTCVVVDVSHEDPEVKFNWYVDGVEVHNAKTKPREEQYNSTYRVVSVLTVLHQDWLNGKEYKCKVSNKALPAPIEKTISKAKGQPREPQVYTLPPSREEMTKNQVSLTCLVKGFYPSDIAVEWESNGQPENNYKTTPPVLDSDGSFFLYSKLTVDKSRWQQGNVFSCSVMHEALHNQYTQKSLSLSPG

binding result [2]: binds
B10: 126_zu1 Conjugate (Fc fusion)
chain: QVQLVESGGGLVQPGGSLRLSCAASGITFSMYSMSWFRQAPGQGLEAVAATTTFGSTNYADSVKGRFTISRDNSKNTLYLQMNSLRAEDTAVYYCAARFTSEEYWGQGTLVTVSSEPKSSDKTHTCPPCPAPEAEGAPSVFLFPPKPKDTLMISRTPEVTCVVVDVSHEDPEVKFNWYVDGVEVHNAKTKPREEQYNSTYRVVSVLTVLHQDWLNGKEYKCKVSNKALPSSIEKTISKAKGQPREPQVYTLPPSREEMTKNQVSLTCLVKGFYPSDIAVEWESNGQPENNYKTTPPVLDSDGSFFLYSKLTVDKSRWQQGNVFSCSVMHEALHNQYTQKSLSLSPG
modifications: conjugated to p-SCN-Bn-DOTA, chelator-antibody ratio of 3-5 (lysine-based conjugation)

EC50 (read off the curve) [2]: ~0.1 nM
B11: 126_zu2 Conjugate (Fc fusion)
chain: B10 chain with A47L
modifications: conjugated to p-SCN-Bn-DOTA, chelator-antibody ratio of 3-5 (lysine-based conjugation)

binding result [1]: binds
B12: 107 (Fc fusion)
VHH-Fc chain: QVQLVESGGGLVQAGDSLRLSCVASDRTFSSYAVGWFRQAPGKEREFVAAISWNGGRTLYTDSVTGRFTISRDNAKSTVYLQMNGLKPEDTAVYYCAARPAAPTRRLEYDYWGQGTQVTVSS
notes: same clone as 1.m45, 2.m28, 3.m30, 3.m55, 4.m13

binding result [1]: binds
B13: 100 (Fc fusion)
VHH-Fc chain: QVQLVESGGGSVQPGGSLRLSCAASGIVFNSDVMGWYRQVPGKPRELVATITGGGSTNYATSVKGRFTISRDNAKNTVYLQMNSLRPEDTAVYYCNGRRGDSMLAFWAQGTQVTVSS
notes: same clone as 1.m44, 2.m24, 3.m26, 3.m53, 4.m7; also called Clone 100

EC50 (read off the curve) [3]: ~0.2 nM | EC50 (read off the curve) [4]: ~0.2 nM | Kd [5]: 5.04 nM | koff [5]: 0.000513 s⁻¹ | kon [5]: 102000 M⁻¹ s⁻¹
B14: 107_zu2 (Fc fusion)
chain: QVQLVESGGGLVQPGGSLRLSCAASDRTFSSYAVGWFRQAPGQGLEFVAAISWNGGRTLYTDSVTGRFTISRDNSKNTLYLQMNSLRAEDTAVYYCAARPAAPTRRLEYDYWGQGTLVTVSSEPKSSDKTHTCPPCPAPEAEGAPSVFLFPPKPKDTLMISRTPEVTCVVVDVSHEDPEVKFNWYVDGVEVHNAKTKPREEQYNSTYRVVSVLTVLHQDWLNGKEYKCKVSNKALPSSIEKTISKAKGQPREPQVYTLPPSREEMTKNQVSLTCLVKGFYPSDIAVEWESNGQPENNYKTTPPVLDSDGSFFLYSKLTVDKSRWQQGNVFSCSVMHEALHNQYTQKSLSLSPG
notes: Humanized VHH-Fc
